{"source": "paper doi:10.1101/2025.08.03.668247", "about": "“The structure of Egalitarian in complex with the K10 mRNA localization signal reveals a modular binding surface required for function”", "details_in_all_cases": "protein: recombinant; tags: N-terminal GST; label: 5'-6-FAM; hairpin with two bulges", "key": {"[1]": {"molecular_target": "T1, K755E (Drosophila melanogaster, UniProt Q9W1K4 512-819, K755E)", "T1 sequence": "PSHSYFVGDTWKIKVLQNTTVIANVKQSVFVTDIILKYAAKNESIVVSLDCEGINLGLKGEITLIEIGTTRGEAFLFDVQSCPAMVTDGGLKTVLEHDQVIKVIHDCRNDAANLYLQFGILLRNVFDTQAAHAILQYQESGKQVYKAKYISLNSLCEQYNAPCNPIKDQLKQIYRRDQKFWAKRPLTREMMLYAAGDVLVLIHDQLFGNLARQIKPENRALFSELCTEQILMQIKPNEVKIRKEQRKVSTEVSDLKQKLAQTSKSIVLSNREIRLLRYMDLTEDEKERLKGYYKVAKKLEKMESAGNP", "experiment": "fluorescence anisotropy; FA: 20 mM HEPES-NaOH pH 7.5, 100 mM NaCl, 10% glycerol, 20 C, 10 nM FAM-RNA; competition: 150 nM Egl512-819 + 10 nM FAM-K10 TLS, same buffer"}, "[2]": {"molecular_target": "T2, D617A/R619A/N620A (Drosophila melanogaster, UniProt Q9W1K4 512-819, D617A;R619A;N620A)", "T2 sequence": "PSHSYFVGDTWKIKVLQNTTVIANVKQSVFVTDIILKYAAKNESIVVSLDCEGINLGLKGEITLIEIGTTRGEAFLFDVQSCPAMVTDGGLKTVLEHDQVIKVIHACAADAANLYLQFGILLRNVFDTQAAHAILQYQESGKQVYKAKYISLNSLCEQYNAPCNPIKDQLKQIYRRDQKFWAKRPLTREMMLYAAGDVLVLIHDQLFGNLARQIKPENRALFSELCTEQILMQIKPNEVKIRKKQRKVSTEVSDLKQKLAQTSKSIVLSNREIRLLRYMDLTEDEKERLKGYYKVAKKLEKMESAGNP", "experiment": "fluorescence anisotropy; FA: 20 mM HEPES-NaOH pH 7.5, 100 mM NaCl, 10% glycerol, 20 C, 10 nM FAM-RNA; competition: 150 nM Egl512-819 + 10 nM FAM-K10 TLS, same buffer"}, "[3]": {"molecular_target": "T3, K659E/K754E (Drosophila melanogaster, UniProt Q9W1K4 512-819, K659E;K754E)", "T3 sequence": "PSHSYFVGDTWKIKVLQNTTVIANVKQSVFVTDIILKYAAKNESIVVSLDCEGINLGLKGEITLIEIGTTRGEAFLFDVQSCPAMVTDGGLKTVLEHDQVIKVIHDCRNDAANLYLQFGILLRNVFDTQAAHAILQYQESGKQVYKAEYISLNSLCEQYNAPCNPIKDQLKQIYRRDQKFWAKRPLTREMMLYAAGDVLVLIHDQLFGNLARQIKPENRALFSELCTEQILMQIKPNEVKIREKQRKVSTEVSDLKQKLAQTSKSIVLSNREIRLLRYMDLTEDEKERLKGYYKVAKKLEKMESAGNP", "experiment": "fluorescence anisotropy; FA: 20 mM HEPES-NaOH pH 7.5, 100 mM NaCl, 10% glycerol, 20 C, 10 nM FAM-RNA; competition: 150 nM Egl512-819 + 10 nM FAM-K10 TLS, same buffer"}, "[4]": {"molecular_target": "T4, R753E (Drosophila melanogaster, UniProt Q9W1K4 512-819, R753E)", "T4 sequence": "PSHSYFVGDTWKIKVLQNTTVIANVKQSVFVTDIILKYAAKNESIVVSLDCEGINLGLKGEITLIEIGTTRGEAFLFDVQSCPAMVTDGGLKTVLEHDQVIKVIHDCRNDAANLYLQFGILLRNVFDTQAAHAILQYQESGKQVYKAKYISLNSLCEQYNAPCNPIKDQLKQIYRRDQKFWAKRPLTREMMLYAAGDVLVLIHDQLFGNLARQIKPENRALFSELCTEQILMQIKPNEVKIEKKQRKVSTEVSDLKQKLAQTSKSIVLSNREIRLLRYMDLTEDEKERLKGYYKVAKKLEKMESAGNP", "experiment": "fluorescence anisotropy; FA: 20 mM HEPES-NaOH pH 7.5, 100 mM NaCl, 10% glycerol, 20 C, 10 nM FAM-RNA; competition: 150 nM Egl512-819 + 10 nM FAM-K10 TLS, same buffer"}, "[5]": {"molecular_target": "T5, Y685A (Drosophila melanogaster, UniProt Q9W1K4 512-819, Y685A)", "T5 sequence": "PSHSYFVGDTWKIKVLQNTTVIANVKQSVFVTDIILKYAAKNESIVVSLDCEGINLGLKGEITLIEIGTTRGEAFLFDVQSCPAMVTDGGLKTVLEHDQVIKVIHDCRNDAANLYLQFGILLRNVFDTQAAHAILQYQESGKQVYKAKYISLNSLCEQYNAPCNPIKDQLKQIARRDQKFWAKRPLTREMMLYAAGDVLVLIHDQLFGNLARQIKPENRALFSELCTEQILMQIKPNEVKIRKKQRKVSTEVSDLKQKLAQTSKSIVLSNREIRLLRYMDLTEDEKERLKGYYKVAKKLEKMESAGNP", "experiment": "fluorescence anisotropy; FA: 20 mM HEPES-NaOH pH 7.5, 100 mM NaCl, 10% glycerol, 20 C, 10 nM FAM-RNA; competition: 150 nM Egl512-819 + 10 nM FAM-K10 TLS, same buffer"}, "[6]": {"molecular_target": "T6, K659E/K754E/R788E (Drosophila melanogaster, UniProt Q9W1K4 512-819, K659E;K754E;R788E)", "T6 sequence": "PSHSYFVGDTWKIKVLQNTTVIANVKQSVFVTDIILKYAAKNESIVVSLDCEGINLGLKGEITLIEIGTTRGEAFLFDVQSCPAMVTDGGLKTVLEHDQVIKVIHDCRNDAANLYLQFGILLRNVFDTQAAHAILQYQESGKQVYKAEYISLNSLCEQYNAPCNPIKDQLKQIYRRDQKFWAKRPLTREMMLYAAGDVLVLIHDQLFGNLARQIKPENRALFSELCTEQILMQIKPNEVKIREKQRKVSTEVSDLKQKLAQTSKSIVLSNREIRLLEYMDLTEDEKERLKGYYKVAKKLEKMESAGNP", "experiment": "fluorescence anisotropy; binding not detected; FA: 20 mM HEPES-NaOH pH 7.5, 100 mM NaCl, 10% glycerol, 20 C, 10 nM FAM-RNA; competition: 150 nM Egl512-819 + 10 nM FAM-K10 TLS, same buffer"}}}
{"binder": "CUUGAUUGUAUUUUUAAAUUAAUUCUUAAAAACUACAAAUUAAG (structured_RNA)", "note": "[K10 TLS (FAM)]", "values": [{"measurement": "Kd", "setting": "[1]", "result": "133 ± 2", "unit": "nM"}, {"measurement": "Kd", "setting": "[2]", "result": "273 ± 12", "unit": "nM"}, {"measurement": "Kd", "setting": "[3]", "result": "433 ± 42", "unit": "nM"}, {"measurement": "Kd", "setting": "[4]", "result": "185 ± 9", "unit": "nM"}, {"measurement": "Kd", "setting": "[5]", "result": "221 ± 11", "unit": "nM"}, {"measurement": "binding result", "setting": "[6]", "result": "no binding"}]}
